From patent US20100069815A1 (ASAHI KASEI, published 2010)

Biological target: T1, CD4 on CD4 positive cells in human peripheral blood (human, UniProt P01730 26-458)
T1 construct: whole, on cells; also called CD4 molecules
Test: cell adsorption from human whole blood on covalently immobilized binder (GMA grafted nonwoven fabric column); flow cytometry; mean ± SD of 3
Experimental: Immediately before the initiation of experiment, the PBS(−) solution was drained off by flowing air through the column. 5.0 ml of healthy human fresh blood containing ACD-A ([…] Laboratories) (blood:ACD-A=6.7:1) was fed from the inlet of the cell adsorber at a flow rate of 1.0 ml/min with a syringe pump. After discarding the first five drops, the treated blood was collected from the outlet of the column.
The CD4 positive cell removal rate at that time was calculated based on the change in the number of leukocytes measured by Coulter counter, and the change in the proportion of CD4 positive cells in the recovered cells measured by flow cytometry with use of a flow cytometer (FACS Calibur: Becton, Dickinson and Company). The cells were stained by the following manner. 100 μl of the collected blood was added with 10 μl of anti-CD4-PE solution (clone SK3, Becton, Dickinson and Company), 10 μl of anti-CD8-FITC solution (clone RPA-T8, Becton, Dickinson and Company), and 10 μl of anti-CD45-PerCP solution (Becton, Dickinson and Company). The resultant mixture was allowed to be stained at room temperature for 30 minutes, and then was added with 1 ml of FACS Lysing solution (Becton, Dickinson and Company) to effect hemolysis. CD45 positive cells were gated as leukocytes, and the proportion of CD4 positive cells therein was assayed.

- CD4 positive cell removal rate (%): 29.6%
B1: Leu3a scFv-Normal (scFv)
scFv: MADIVLTQSPASLAVSLGQRATISCKASQSVDYDGDSYMNWYQQKPGQPPKLLIYAASNLESGIPARFTGSGSGTDFTLNIHPVEEEDTATYYCQQSYEDPPTFAGGTNLEIKGGGGSGGGGSGGGGSMVHLQESEPELVKPGASVKMSCKASGYTFTDYVINWVKQRTGQGLEWIGETYTGSGSSYYNEKFKDKATLTVDKASNIAYMQLSSLTSEDSAVYFCARRGKGTGFAFWGQGTLVTVSAAAADYKDDDDKGSSEQKLISEEDLGSRSTHHHHHHGSTK
notes: Covalently immobilized on GMA grafted nonwoven fabric in the assay
